Measured values from paper PMC6400558 (2019).

B1: MBP-tagged Hook2 Hook+CC1 (N427) WT [human] / GST-tagged LIC1 (389–523 aa) [not stated] (parent complex)
chain 1: MSVDKAELCGSLLTWLQTFHVPSPCASPQDLSSGLAVAYVLNQIDPSWFNEAWLQGISEDPGPNWKLKVSNLKMVLRSLVEYSQDVLAHPVSEEHLPDVSLIGEFSDPAELGKLLQLVLGCAISCEKKQDHIQRIMTLEESVQHVVMEAIQELMTKDTPDSLSPETYGNFDSQSRRYYFLSEEAEEGDELQQRCLDLERQLMLLSEEKQSLAQENAGLRERMGRPEGEGTPGLTAKKLLLLQSQLEQLQEENFRLESGREDERLRCAELEREVAELQHRNQALTSLAQEAQALKDEMDELRQSSERAGQLEATLTSCRRRLGELRELRRQVRQLEERNAGHAERTRQLEDELRRAGSLRAQLEAQRRQVQELQGQRQEEAMKAEKWLFECRNLEEKYESVTKEKERLLAERDSLREANEELRCAQLQ
chain 2: TAAGRPVDASPRVPGGSPRTPNRSVSSNVASVSPIPAGSKKIDPNMKAGATSEGVLANFFNSLLSKKTGSPGGPGVSGGSPAGGAGGGSSGLPPSTKKSGQKPVLDVHAELDRITRKPVTVSPTTPTSPTEGEAS

Variants of: B1
Assay: GST pull-down, anti-MBP immunoblot, band intensity quantified; n = 3; parent: 0.95; read off a plot

| Variant | response |
| --- | --- |
| chain 1 MSVDKAELCGSLLTWLQTFHVPSPCASPQDLSSGLAVAYVLNQIDPSWFNEAWLQGISEDPGPNWKLKVSNLKMVLRSLVEYSQDVLAHPVSEEHLPDVSLIGEFSDPAELGKLLQLVLGCAISCEKKQDHIQRIMTLEESVQHVVMEAAQELMTKDTPDSLSPETYGNFDSQSRRYYFLSEEAEEGDELQQRCLDLERQLMLLSEEKQSLAQENAGLRERMGRPEGEGTPGLTAKKLLLLQSQLEQLQEENFRLESGREDERLRCAELEREVAELQHRNQALTSLAQEAQALKDEMDELRQSSERAGQLEATLTSCRRRLGELRELRRQVRQLEERNAGHAERTRQLEDELRRAGSLRAQLEAQRRQVQELQGQRQEEAMKAEKWLFECRNLEEKYESVTKEKERLLAERDSLREANEELRCAQLQ [chain 1 I150A] | ~0.18 Pulldown/Input |
| chain 1 MSVDKAELCGSLLTWLQTFHVPSPCASPQDLSSGLAVAYVLNQIDPSWFNEAWLQGISEDPGPNWKLKVSNLKMVLRSLVEYSQDVLAHPVSEEHLPDVSLIGEFSDPAELGKLLQLVLGCAISCEKKQDHIQRIMTLEESVAHVVMEAIQELMTKDTPDSLSPETYGNFDSQSRRYYFLSEEAEEGDELQQRCLDLERQLMLLSEEKQSLAQENAGLRERMGRPEGEGTPGLTAKKLLLLQSQLEQLQEENFRLESGREDERLRCAELEREVAELQHRNQALTSLAQEAQALKDEMDELRQSSERAGQLEATLTSCRRRLGELRELRRQVRQLEERNAGHAERTRQLEDELRRAGSLRAQLEAQRRQVQELQGQRQEEAMKAEKWLFECRNLEEKYESVTKEKERLLAERDSLREANEELRCAQLQ [chain 1 Q143A] | ~0.22 Pulldown/Input |
